Experiment [1] concerns the target 017-mut3 peptide (…)/HLA-A*02:01 complex on T2 cells (human). In words: flow cytometry, HLA-A2 staining of T2 pulsed with peptide A3 (T2 stabilisation).
Experiment [2] deals with 017-mut7 peptide (…)/HLA-A*02:01 complex on T2 cells (human). Kind of experiment: flow cytometry, HLA-A2 staining of T2 pulsed with peptide A7 (T2 stabilisation). A general note: Flow cytometry measures light scatter and fluorescence of single cells or particles in a stream.
Experiment [3] addresses 017-mut8 peptide (…)/HLA-A*02:01 complex on T2 cells (human). Kind of experiment: flow cytometry, HLA-A2 staining of T2 pulsed with peptide A8 (T2 stabilisation).
The target in experiment [4] is HLA-A2 on MAC-1 and MAC-2A cells (Homo sapiens), A*02:0. In words: flow cytometry on MAC-2A cells, HLA-A2 staining; isotype control 86.2.
Experiment [5] deals with 017-mut9 peptide (…)/HLA-A*02:01 complex on T2 cells (human). Kind of experiment: flow cytometry, HLA-A2 staining of T2 pulsed with peptide A9 (T2 stabilisation).
Experiment [6] deals with T2+FoxP7-G10 (Homo sapiens), A*02:0. Kind of experiment: flow cytometry, HLA-A2 staining of T2 pulsed with peptide G10 (T2 stabilisation).
Experiment [7] concerns the target HLA-A*02:01 on T2 cells alone (no peptide added) (human). In words: flow cytometry, HLA-A2 staining of T2 without peptide.
Experiment [8] has as its target 017-mut2 peptide (…)/HLA-A*02:01 complex on T2 cells (human). In words: flow cytometry, HLA-A2 staining of T2 pulsed with peptide A2 (T2 stabilisation).
Experiment [9] concerns the target 017-mut1 peptide (…)/HLA-A*02:01 complex on T2 cells (human). In words: flow cytometry, HLA-A2 staining of T2 pulsed with peptide A1 (T2 stabilisation).
The target of experiment [10] is Foxp3-7 peptide/HLA-A*02:01 complex on the cell surface (human). Kind of experiment: flow cytometry, HLA-A2 staining of T2 pulsed with the wild type Foxp3-7 peptide (T2 stabilisation).
The target of experiment [11] is 017-mut5 peptide (…)/HLA-A*02:01 complex on T2 cells (human). In words: flow cytometry, HLA-A2 staining of T2 pulsed with peptide A5 (T2 stabilisation).
In experiment [12] the target is HLA-A2 on MAC-1 and MAC-2A cells (Homo sapiens), A*02:0. Kind of experiment: flow cytometry on MAC-1 cells, HLA-A2 staining; isotype control 93.6.
For experiment [13] the target is unchanged. In words: flow cytometry on MAC-1 cells, isotype control of BB7.
Experiment [14] shares this target. In words: flow cytometry on MAC-2A cells, isotype control of BB7.

In the case of BB7 (antibody), the Median:FITC-A in experiment [1] came out at 35100; in experiment [2] it was 18600; in [3], 16500; in experiment [4] it was 44000; in experiment [5] it was 10400; in [6] it was 34100. Moreover, the Median:FITC-A in experiment [7] is 6940; in experiment [8] it was 11200; in experiment [9], 29600; in [10] it was 18000; in experiment [11] it was 10400; in experiment [12], 35000.

In the case of mIso (antibody), the Median:FITC-A amounted to 93.6 in [13] and 86.2 in experiment [14].

The values above are taken from US20190284262A1.
